Test [1] deals with Recombinant Aα392–503 fragment corresponding to the N-terminal subdomain of the human fibrinogen αC-domain (human). Nature of the test: optical trap-based force spectroscopy.
The target in test [2] is Recombinant Aα221–391 fragment corresponding to the human fibrinogen αC-connector (human). Nature of the test: optical trap-based force spectroscopy.
For test [3], the target named is Lys429Cys/Thr463Cys double mutant of the bovine Aα406–483 fragment, first fraction (Fr-1) (bovine). Nature of the test: SEC. A general note: Size exclusion chromatography separates by hydrodynamic size, large species first.
The target is the same in test [4]. The experiment in a line: SEC. This is another data set of the same source.
For test [5] the target is unchanged. Nature of the test: SEC. The source holds these as a separate data set.

Like-named read-outs stand apart in the source and are kept apart here.

On to “Recombinant Aα392–503 fragment corresponding to the N-terminal subdomain of the human fibrinogen αC-domain (domain or fragment)”, for which, in test [1], the cumulative binding probability worked out at 67%, the rupture force peak 1 is 16 pN, the rupture force peak 2 was 32 pN and the rupture force peak 3 turned out to be 48 pN.

For the substance “Recombinant Aα392–610 fragment corresponding to the human fibrinogen αC-domain (domain or fragment)”, in test [2], the cumulative binding probability came to 51% and the rupture force peak is 22 pN.

On to “Recombinant Aα504–610 fragment corresponding to the C-terminal subdomain of the human fibrinogen αC-domain (domain or fragment)”, for which, in test [2], the cumulative binding probability is 46% and the rupture force peak turned out to be 26 pN.

As to “Lys429Cys/Thr463Cys double mutant of the bovine Aα406–483 fragment, first fraction (Fr-1) (domain or fragment)”, the figures for the oligomers (%) in test [3], in test [4] and in test [5] were 5.9%, 31.7% and 12.4%, respectively.

(Values after article PMC3343699.)
